{
  "source": "paper PMC11582648",
  "about": "(Nature Communications, 2024)",
  "binders": {"B1": {"name": "His-USP46 (enzyme)", "chain": "MTVRNIASICNMGTNASALEKDIGPEQFPINEHYFGLVNFGNTCYCNSVLQALYFCRPFRENVLAYKAQQKKKENLLTCLADLFHSIATQKKKVGVIPPKKFISRLRKENDLFDNYMQQDAHEFLNYLLNTIADILQEEKKQEKQNGKLKNGNMNEPAENNKPELTWVHEIFQGTLTNETRCLNCETVSSKDEDFLDLSVDVEQNTSITHCLRDFSNTETLCSEQKYYCETCCSKQEAQKRMRVKKLPMILALHLKRFKYMEQLHRYTKLSYRVVFPLELRLFNTSSDAVNLDRMYDLVAVVVHCGSGPNRGHYITIVKSHGFWLLFDDDIVEKIDAQAIEEFYGLTSDISKNSESGYILFYQSRE"}},
  "target": "T1, GST-CK1δ (human, UniProt P48730-2 1-409)",
  "T1 sequence": "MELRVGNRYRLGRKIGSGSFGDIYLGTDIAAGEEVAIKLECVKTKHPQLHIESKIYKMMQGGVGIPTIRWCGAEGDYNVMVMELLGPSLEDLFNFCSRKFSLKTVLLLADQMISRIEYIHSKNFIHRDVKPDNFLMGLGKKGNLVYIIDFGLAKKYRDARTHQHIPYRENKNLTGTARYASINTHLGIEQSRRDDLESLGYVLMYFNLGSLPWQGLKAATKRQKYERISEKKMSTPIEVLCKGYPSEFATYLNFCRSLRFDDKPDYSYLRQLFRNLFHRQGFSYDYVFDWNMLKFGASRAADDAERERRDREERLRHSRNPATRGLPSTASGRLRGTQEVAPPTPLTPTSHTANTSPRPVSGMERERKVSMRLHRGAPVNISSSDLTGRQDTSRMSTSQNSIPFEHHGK",
  "test": "pull-down",
  "data": [
    {"binder": "B1", "values": [
      {"measurement": "binding result", "value": "binds"}
    ]}
  ]
}
